Measured values published in US20220267414A1.

Tests used:
[1] = target: canine parvovirus CPV-2b (canine parvovirus CPV-2b); assay: cell-based or functional assay
[2] = target: recombinant canine parvovirus CPV2b capsid (Advanced ImmunoChemical Inc Cat #8-CPV) (canine parvovirus CPV2b); assay: BLI (Octet), biotinylated antibody on streptavidin tips, VLP at 40 µg/mL as analyte, 1:1 fit

Row | Molecule | CPV-2b HI (hemagglutination inhibition) [1] | Kd [2] [nM]
1 | irrelevant canine IgG (antibody) | < 20 | 
2 | Chimeric Canine Mab A v2 (antibody) heavy: QVQLKESGPGLVAPSQTLSLTCTVSGFSLSSYHVHWVRQPPGKGLEWLGVMWNDGDTSYNLALNSRLSISRDTSKSQVFFKMSSLQTEDTATYYCARPELPGLTYGVWFPYWGQGTLVTVSAASTTAPSVFPLAPSCGSTSGSTVALACLVSGYFPEPVTVSWNSGSLTSGVHTFPSVLQSSGLYSLSSMVTVPSSRWPSETFTCNVAHPASKTKVDKPVPKRENGRVPRPPDCPKCPAPEMLGGPSVFIFPPKPKDTLLIARTPEVTCVVVDLDPEDPEVQISWFVDGKQMQTAKTQPREEQFNGTYRVVSVLPIGHQDWLKGKQFTCKVNNKALPSPIERTISKARGQAHQPSVYVLPPSREELSKNTVSLTCLIKDFFPPDIDVEWQSNGQQEPESKYRTTPPQLDEDGSYFLYSKLSVDKSRWQRGDTFICAVMHEALHNHYTQESLSHSPGK light: DIVMTQTPASMSISVGDRVTMNCKASQNVDSNVDWYQQKTGQSPNLLIYKASNRNTGVPDRFTGSGSGTDFTFTISNMQAEDLAVYYCMQSTSYPLTFGSGTKLEIKRNDAQPAVYLFQPSPDQLHTGSASVVCLLNSFYPKDINVKWKVDGVIQDTGIQESVTEQDKDSTYSLSSTLTMSSTEYLSHELYSCEITHKSLPSTLIKSFQRSECQRVD |  | 0.0978
3 | Chimeric Canine Mab B v2 (antibody, V domains shown) VH: QVQLKESGPGLVQPSETLSLTCTVSGFSLTSYGVSWVRQPPGKGLEWMGTMWNDGDTDYNSALRSKLSISRDTSKSQVFLKMNSLQTEDTAIYYCARSQLPGYNLRGWFVYWGQGTLVIVSA VL: DIQMTQSPPVLSASVGDRVTLSCKASHNINKNLEWYQQKLGEAPKLLIYYANNLQTGIPSRFSGSGSGTDYTLTISSLQPEDVATYYCYQYNSGHTFGAGTKLEIKR |  | 0.00938
